Experimental data: paper PMC8629256, “Structural and functional studies of D109A human αB-crystallin contributing to the development of cataract and cardiomyopathy diseases” (PLoS ONE, 2021)
Changes are numbered by the printed parent chain. Names and notes keep the numbering of the source.

B1: wild-type human αB-crystallin (natural protein)
chain: MDIAIHHPWIRRPFFPFHSPSRLFDQFFGEHLLESDLFPTSTSLSPFYLRPPSFLRAPSWFDTGLSEMRLEKDRFSVNLDVKHFSPEELKVKVLGDVIEVHGKHEERQDEHGFISREFHRKYRIPADVDPLTITSSLSSDGVLTVNGPRKQVSGPERTIPITREEKPAVTAAPKK
notes: human αB-crystallin (HSPB5), 175 amino acids, coded by CRYAB; cDNA cloned in pET-28b(+); Polydisperse oligomer; 32 subunits is the number worked out for the majority species in AUC (about 650 kDa); also called heat shock protein β5; HSPB5; source: E. coli BL21 (DE3), purified (DEAE-cellulose anion exchange in urea buffer, dialysed against water); copies: 32
B2: D109A mutant human αB-crystallin (natural protein)
chain: B1 chain with D109A
notes: human αB-crystallin (HSPB5) with the patient mutation D109A (cDNA 326 A>C), made by site-directed mutagenesis of the wild-type cDNA in pET-28b(+); Polydisperse oligomer; 53 subunits is the number worked out for the majority species in AUC (about 1,060 kDa); larger ensembles of 1500-3000 kDa are also seen; The mutation is reported in patients with myofibrillar myopathy; No tag is named; see the …

Target: the molecule itself
Experiment: AUC; sedimentation velocity, 20 °C, 40,000 rpm, 40 mM sodium phosphate, 100 mM NaCl, 1 mM EDTA, 3 mM NaN3, pH 7.0; wild type 1.0 mg/mL, D109A 0.5 mg/mL; c(s) and c(M) by SEDFIT; run after dialysis and again after 24 h at 20 °C; size of the oligomer

Protein	stoichiometry N
B1	32 subunits
B2	53 subunits
